Reference: patent US20240293588A1, “THERAPEUTIC CONJUGATES” (Starpharma Pty Ltd, priority 2020, published 2024)

Columns and labels:
ErbB2-ECD = ErbB2-ECD (Homo sapiens, UniProt P04626); experiment: SPR binding studies with immobilized ErbB2-ECD; details: result in words
Method: Using a ProteOn XPR36 instrument, ErbB2-ECD was immobilized at 25° C. onto a GLC sensor chip surface (Bio-Rad), with HBS-P+ running buffer (10 mM HEPES, pH 7.4, 150 mM NaCl, 0.05% Tween 20). Standard amine coupling methodology described in Bio-Rad's amine coupling kit was utilized for this immobilization. Lane 1 was activated with a 50:50 mixture of EDC (0.5 mM) and sulfo-NHS (0.125 mM). ErbB2 protein was diluted to […] in 10 mM sodium acetate, pH 5.0 and injected over the activated surface channel. Any remaining activated sites were blocked with 1 M ethanolamine-HCl, pH 8.5.
All SPR binding experiments were performed at 25° C. using HBS-EP+/BSA (10 mM HEPES, pH 7.4, 150 mM NaCl, 3 mM EDTA, 0.05% Tween20, 0.1 mg/ml BSA) as the instrument running buffer (RB). Following immobilization procedures, various concentrations of anti-ErbB2 affibodies and their MMAE-dendrimer conjugates were injected at 60 μl/min over immobilized ErbB2 proteins and their association monitored for 90 sec. Running buffer was subsequently injected over bound Ab-ErbB2 complexes and dissociation monitored for up to 60 min. […] All binding measurements were performed in triplicate.
Collected experimental data were processed using Scrubber-Pro software (www.biologic.com.au). […]

MDA-MB-231/HER2 tumours = experiment: Tumour distribution of tritium-labelled MMAE-conjugated dendrimers; type: in vivo, NOD/SCID mice; details: 3H label, 0.5 μCi via tail vein, 48 h, mean±SEM
Method: MDA-MB-231/HER2 cells (5×10^6 cells in 50 μL of PBS:Matrigel) were transplanted into the 4th mammary fat pad of female NOD/SCID mice (5-7 weeks old) subcutaneously. Solid tumours were allowed to grow to 100 mm^3 (approximately 3-4 weeks). The mice were divided into two different groups, consisting of six mice in each group. Compound 72 (control group) or Compound 127 (targeted group) (0.5 μCi in 100 μL, PBS pH 7) was then injected via tail vein under isoflurane sedation. The mice were anaesthetised with isoflurane 48 h later, and blood collected via cardiac puncture immediately prior to cervical dislocation. Selected organs (including tumour, liver, spleen, kidney, pancreas, lung, heart and brain) were subsequently removed, weighed and processed for tritium (^3H) biodistribution.

[1] = target: T1, HER2 (human epidermal growth factor receptor 2) on cells (human, UniProt P04626 23-1255); experiment: flow cytometry (Cy5), MDA-MB-231/HER2 cells, 3.33 nM, 37 °C, 4 h
T1 construct: whole, on cells; also called ERBB2; HER2 receptor

[2] = target: T1, HER2 (human epidermal growth factor …); experiment: flow cytometry (Cy5), MDA-MB-231/HER2 cells, 2 h
[3] = target: T1, HER2 (human epidermal growth factor …); experiment: flow cytometry (Cy5), MDA-MB-231/HER2 cells, 0.25 h
[4] = target: T1, HER2 (human epidermal growth factor …); experiment: flow cytometry (Cy5), MDA-MB-231/HER2 cells, 3.33 nM, 37 °C, 2 h
[5] = target: T1, HER2 (human epidermal growth factor …); experiment: flow cytometry (Cy5), MDA-MB-231 parental cells (HER2 lo, control), 3.33 nM, 37 °C, 24 h
Method: (§1) After incubation, non-binding/non-associating particles were removed from adherent cells by gently washing with DPBS three times (300 μL/well). Cells were removed from plates by treatment with TrypLE™ Express Enzyme (1×), no phenol red (150 μL/well) for 5-10 min at room temperature. The plates were then placed on ice. Cellular binding and association of sample were then determined through flow cytometry by the acquisition of the signal from Cy5.
(§2) To measure internalisation kinetics, nanobody-dendrimer was incubated with cells for 24, 4, 1, 0.5, and 0.1 hours at 37° C. before unbound nanobody-dendrimer was removed by washing and analysed by flow cytometry.

[6] = target: T1, HER2 (human epidermal growth factor …); experiment: flow cytometry (Cy5), MDA-MB-231 parental cells (HER2 lo, control), 3.33 nM, 37 °C, 0.5 h
Method: as §1, §2

[7] = target: T1, HER2 (human epidermal growth factor …); experiment: flow cytometry (Cy5), MDA-MB-231/HER2 cells, 0.5 h
[8] = target: T1, HER2 (human epidermal growth factor …); experiment: flow cytometry (Cy5), MDA-MB-231 parental cells (HER2 lo, control), 3.33 nM, 37 °C, 1 h
[9] = target: T1, HER2 (human epidermal growth factor …); experiment: flow cytometry (Cy5), MDA-MB-231/HER2 cells, 3.33 nM, 37 °C, 24 h
[10] = target: T1, HER2 (human epidermal growth factor …); experiment: flow cytometry (Cy5), MDA-MB-231 parental cells (HER2 lo, control), 24 h
[11] = target: T1, HER2 (human epidermal growth factor …); experiment: flow cytometry (Cy5), MDA-MB-231 parental cells (HER2 lo, control), 3.33 nM, 37 °C, 0.25 h
Method: as §1, §2

[12] = target: T1, HER2 (human epidermal growth factor …); experiment: flow cytometry (Cy5), MDA-MB-231/HER2 cells, 3.33 nM, 37 °C, 1 h
[13] = target: T1, HER2 (human epidermal growth factor …); experiment: flow cytometry (Cy5), MDA-MB-231 parental cells (HER2 lo, control), 0.25 h
[14] = target: T1, HER2 (human epidermal growth factor …); experiment: flow cytometry (Cy5), MDA-MB-231 parental cells (HER2 lo, control), 3.33 nM, 37 °C, 2 h
Method: as §1, §2

[15] = target: T1, HER2 (human epidermal growth factor …); experiment: flow cytometry (Cy5), MDA-MB-231 parental cells (HER2 lo, control), 1 h
[16] = target: T1, HER2 (human epidermal growth factor …); experiment: flow cytometry (Cy5), MDA-MB-231 parental cells (HER2 lo, control), 4 h
[17] = target: T1, HER2 (human epidermal growth factor …); experiment: flow cytometry (Cy5), MDA-MB-231/HER2 cells, 24 h
[18] = target: T1, HER2 (human epidermal growth factor …); experiment: flow cytometry (Cy5), MDA-MB-231/HER2 cells, 4 h
[19] = target: T1, HER2 (human epidermal growth factor …); experiment: flow cytometry (Cy5), MDA-MB-231 parental cells (HER2 lo, control), 0.5 h
[20] = target: T1, HER2 (human epidermal growth factor …); experiment: flow cytometry (Cy5), MDA-MB-231 parental cells (HER2 lo, control), 2 h
[21] = target: T1, HER2 (human epidermal growth factor …); experiment: flow cytometry (Cy5), MDA-MB-231/HER2 cells, 1 h
[22] = target: T1, HER2 (human epidermal growth factor …); experiment: flow cytometry (Cy5), MDA-MB-231 parental cells (HER2 lo, control), 3.33 nM, 37 °C, 4 h
Method: as §1, §2

[23] = target: T1, HER2 (human epidermal growth factor …); experiment: flow cytometry (Cy5), MDA-MB-231/HER2 cells, 3.33 nM, 37 °C, 0.25 h
Method: as §1, §2

[24] = target: T1, HER2 (human epidermal growth factor …); experiment: flow cytometry (Cy5), MDA-MB-231/HER2 cells, 3.33 nM, 37 °C, 0.5 h
Method: as §1, §2

[25] = target: T1, HER2 (human epidermal growth factor …); experiment: flow cytometry (Cy5), HER2-positive MDA-MB-453 cells, triplicate wells

With “Azido-PEG24CO—[N(PN)2][Lys]2[Lys]4[Lys]8[(α-NHGlu-vc-PAB-MMAE)8(ε-NH-COPEG2000)8], G3 [Compound 66]” the “binding to ErbB2 proteins (SPR)” value (ErbB2-ECD) was “No binding”.

“(MeTzPh)PEG4CO-NHPEG24CO—[N(PN)2][Lys]2[^3H-Lys]4[Lys]8[(α-NHGlu-VC-PAB-MMAE)8(ε-NH-COPEG1100)8], G3 [Compound 72]” was tested, and the “accumulation in HER2 positive tumours” value (MDA-MB-231/HER2 tumours) was 1.88 % dose/g and the blood concentration (MDA-MB-231/HER2 tumours) was 3.69 % dose/g.

With “Azido-PEG24CO—[N(PN)2][Lys]2[Lys]4[Lys]8[(α-NHGlu-vc-PAB-MMAE)8(ε-NH-COPEG1100)8], G3 [Compound 65]” the “binding to ErbB2 proteins (SPR)” value (ErbB2-ECD) was “No binding”.

B1: Nanobody*-N3/DBCO-NHCO-PEG12TCO/(MeTzPh)PEG4CO-NHPEG24CO-[N(PN)2][Lys]4[Lys]8[((α-NHCy5)1(α-NHAc)7)(ε-NH-COPEG1100)8], Compound 124 (VHH)
VHH: EVQLVESGGSLVQPGGSLRLSCAASGFTFDDYAMSWVRQVPGKGLEWVSSINWSGTHTDYADSVKGRFTISRNNANNTLYLQMNSLKSEDTAVYYCAKNWRDAGTTWFEKSGSAGQGTQVTVSS
modifications: C-terminal # (unnatural amino acid, p-azido-phenylalanine) clicked to DBCO-NHCO-PEG12-TCO, joined to the tetrazine at the core of the G3 lysine dendrimer Compound 52 (1 Cy5, 7 acetyl, 8 PEG1100)
notes: also called G3 2D3 conjugated dendrimer
With B1 the “percent of cellular association” value [1] was 50.6%, the MFI [2] was 445 and the MFI [3] was 235. For the same molecule, the “percent of cellular association” value [4] was 17.4%, the “percent of cellular association” value [5] was 0.83% and the “percent of cellular association” value [6] was 0.87%. For the same molecule, the MFI [7] was 226, the “percent of cellular association” value [8] was 0.8% and the “percent of cellular association” value [9] was 60.7%. For the same molecule, the MFI [10] was 224, the “percent of cellular association” value [11] was 1.07% and the “percent of cellular association” value [12] was 2.57%. For the same molecule, the MFI [13] was 246, the “percent of cellular association” value [14] was 1.13% and the MFI [15] was 237. It also gave an MFI [16] of 250, an MFI [17] of 1110 and an MFI [18] of 800. The MFI [19] was 228, the MFI [20] was 241 and the MFI [21] was 294. For the same molecule, the “percent of cellular association” value [22] was 0.93%, the “percent of cellular association” value [23] was 0.67% and the “percent of cellular association” value [24] was 0.6%. For the same molecule, the MFI [25] was 50.8.

B2: Nanobody*-N3/DBCO-NHCO-PEG12TCO/((MeTzPh)PEG4CO-NHPEG24CO-[N(PN)2][Lys]2[Lys]4[Lys]8[Lys]16[((α-NHCy5)1(α-NHAc)15)(ε-NH-COPEG1100)16, Compound 125 (VHH)
VHH: B1 VHH
modifications: C-terminal # (unnatural amino acid, p-azido-phenylalanine) clicked to DBCO-NHCO-PEG12-TCO, joined to the tetrazine at the core of the G4 lysine dendrimer Compound 53 (1 Cy5, 15 acetyl, 16 PEG1100)
notes: also called G4 2D3 conjugated dendrimer
In the case of B2, the “percent of cellular association” value [1] is reported as 36%, the MFI [2] is reported as 342 and the MFI [3] is reported as 215. The “percent of cellular association” value [4] was 6.13%, the “percent of cellular association” value [5] was 0.87% and the “percent of cellular association” value [6] was 0.53%. For the same molecule, the MFI [7] was 224, the “percent of cellular association” value [8] was 1% and the “percent of cellular association” value [9] was 56.3%. The MFI [10] was 219, the “percent of cellular association” value [11] was 0.87% and the “percent of cellular association” value [12] was 0.77%. For the same molecule, the MFI [13] was 227, the “percent of cellular association” value [14] was 0.77% and the MFI [15] was 230. The MFI [16] was 246, the MFI [17] was 1010 and the MFI [18] was 611. For the same molecule, the MFI [19] was 223, the MFI [20] was 236 and the MFI [21] was 241. For the same molecule, the “percent of cellular association” value [22] was 0.83%, the “percent of cellular association” value [23] was 0.57% and the “percent of cellular association” value [24] was 0.67%. For the same molecule, the MFI [25] was 158.

B3: Nanobody*-N3/DBCO-NHCO-PEG12TCO/(MeTzPh)PEG4CO-NHPEG24CO-[N(PN)2][Lys]2[Lys]4[Lys]8[Lys]16[Lys]32[((α-NHCy5)1(α-NHAc)31)(ε-NH-COPEG1100)32], Compound 126 (VHH)
VHH: B1 VHH
modifications: C-terminal # (unnatural amino acid, p-azido-phenylalanine) clicked to DBCO-NHCO-PEG12-TCO, joined to the tetrazine at the core of the G5 lysine dendrimer Compound 54 (1 Cy5, 31 acetyl, 32 PEG1100)
notes: G5 2D3 conjugated dendrimer
In the case of B3, the “percent of cellular association” value [1] is reported as 59.8%, the MFI [2] is reported as 436 and the MFI [3] is reported as 207. For the same molecule, the “percent of cellular association” value [4] was 18%, the “percent of cellular association” value [5] was 0.8% and the “percent of cellular association” value [6] was 1.03%. The MFI [7] was 237, the “percent of cellular association” value [8] was 1.37% and the “percent of cellular association” value [9] was 73.5%. For the same molecule, the MFI [10] was 223, the “percent of cellular association” value [11] was 0.53% and the “percent of cellular association” value [12] was 2.8%. For the same molecule, the MFI [13] was 195, the “percent of cellular association” value [14] was 0.73% and the MFI [15] was 254. It also gave an MFI [16] of 247, an MFI [17] of 2750 and an MFI [18] of 1040. It also gave an MFI [19] of 245, an MFI [20] of 233 and an MFI [21] of 295. The “percent of cellular association” value [22] was 0.67%, the “percent of cellular association” value [23] was 0.43% and the “percent of cellular association” value [24] was 0.7%. It also gave an MFI [25] of 177.
